Results from patent publication US20260374869 (published 2026).

T1: human CD2 (human, UniProt P06729)
T1 chain: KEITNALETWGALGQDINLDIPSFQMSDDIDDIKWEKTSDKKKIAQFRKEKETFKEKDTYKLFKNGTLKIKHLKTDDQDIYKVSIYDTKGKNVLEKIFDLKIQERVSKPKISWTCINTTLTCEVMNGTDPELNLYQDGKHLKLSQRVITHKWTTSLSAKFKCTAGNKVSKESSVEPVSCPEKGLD

B1: DARPin #3 (designed binder)
chain: DLGKKLLQAARAGQLDEVRELLKAGADVNAKDQQGVTPLHIAAYGHLEIVEVLLKAGADVNAKDLQGETPLHVAAWAGHLEIVEVLLKAGADVNAKDKHGITPLHLAAKKGHLEIVEVLLKAGAEVNAQDKSGKTPADLAARAGHQDIAEVLQKAA
B2: DARPin #15 (designed binder)
chain: DLGDKLLEAAQYGQDDEVRILLAAGADVNAKDNSGSTPLHLAAQHGHLEIVEVLLKAGADVNAKDWWGWTPLHEAATTGHLEIVEVLLKAGADVNAQDKSGKTPADLAAHAGHEDIAEVLQKAA
B3: DARPin #2 (designed binder)
chain: DLGKKLLQAARAGQLDEVRELLKAGADVNAKDQHGFTPLHVAAKEGHLEIVEVLLKAGADVNAKDSFGETPLHLAAEHGHLEIVEVLLKAGADVNAKDQSGWTPLHLAAWAGHLEIVEVLLKAGADVNAQDKSGKTPADLAARAGHQDIAEVLQKAA
B4: DARPin #1 (designed binder)
chain: DLGVKLLHAAQTGQDDEVRILLAAGADVNAKDWLGVTPLHYAAWIGHLEIVEVLLKAGADVNAKDWQGQTPLHLAAQWGHLEIVEVLLKAGADVNAQDNHGNTPADLAAEVGHEDIAEVLQKAA

Molecular target: T1, human CD2
Assay: SPR

| Kd | Binder |
| --- | --- |
| 48 nM | B1 |
| 15.9 nM | B2 |
| 382 nM | B3 |
| 3.28 nM | B4 |
